± gives the standard error. For part of these data: This sample holds only a part of the variants without activity.
B1: glmS ribozyme (parent)
chain: AUAAAAGCGCCAGAACUACAGAAAUGUAGUUGACGAGGAGGAGGUUUAUCGAAUUUUCGGCGGAUGCCUCCAAA

Tests used:
Details in all cases: with glucosamine-6-phosphate
glucosamine-6-phosphate [1] = variants of: B1; experiment: kcat; higher = faster cleavage; RNA array
Outline: (§1)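 Ribozyme variants carrying barcodes were transcribed in situ on sequenced MiSeq chips by E. coli RNA polymerase and tracked at 37 °C with a hybridised Cy3 probe. They were exposed to 40 μM to 10 mM glucosamine-6-phosphate in HEPES/KCl/Mg(OAc)2 buffer. kobs came from exponential decay fits of normalised per-tile medians, and kcat and KM from weighted Michaelis–Menten fits.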

glucosamine-6-phosphate [2] = variants of: B1; experiment: KM; higher = weaker cofactor use; RNA array
Outline: as §1

glucosamine-6-phosphate [3] = variants of: B1; experiment: self-cleavage kobs at 640 uM GlcN6P; higher = faster cleavage; RNA array
Outline: as §1

glucosamine-6-phosphate [4] = variants of: B1; experiment: self-cleavage kobs at 2500 uM GlcN6P; higher = faster cleavage; RNA array
Outline: as §1

glucosamine-6-phosphate [5] = variants of: B1; experiment: self-cleavage kobs at 10000 uM GlcN6P; higher = faster cleavage; RNA array
Outline: as §1

glucosamine-6-phosphate [6] = variants of: B1; experiment: self-cleavage kobs at 40 uM GlcN6P; higher = faster cleavage; RNA array
Outline: as §1

glucosamine-6-phosphate [7] = variants of: B1; experiment: self-cleavage kobs at 160 uM GlcN6P; higher = faster cleavage; RNA array
Outline: as §1

Variant	kcat (glucosamine-6-phosphate [1]) [s⁻¹]	KM (glucosamine-6-phosphate [2]) [µM]	self-cleavage kobs at 640 uM GlcN6P (glucosamine-6-phosphate [3]) [s⁻¹]	self-cleavage kobs at 2500 uM GlcN6P (glucosamine-6-phosphate [4]) [s⁻¹]	self-cleavage kobs at 10000 uM GlcN6P (glucosamine-6-phosphate [5]) [s⁻¹]	self-cleavage kobs at 40 uM GlcN6P (glucosamine-6-phosphate [6]) [s⁻¹]	self-cleavage kobs at 160 uM GlcN6P (glucosamine-6-phosphate [7]) [s⁻¹]
AUAAAAGCGCCAGAACUACAGAAAUGUAGUUGACGAGUAGGAGGUUUAUCGAAUUUUCGGCGGAUGCCUACAAA [G38U C70A]	1.31e-05 ± 3.3e-06	–	–	–	–	–	–
AUAAAUGCGCCAGAACUACAGAAAUGUAGUUGACGAGGAGGAGGUUAAUCGAAUUUUCGGCGGAUGCCUCCAAA [A6U U47A]	0.000155 ± 3.1e-06	1890 ± 110	3.88e-05 ± 9.8e-06	8.84e-05 ± 1.2e-05	0.000131 ± 1.3e-05	–	–
AUAAAAGCGCCAGAACUACAGAAAUGUAGUUGAGGAGGAGGAGGUUUAUCGAAUUUUCGGCGGAUGCCUCGAAA [C34G C71G]	2.07e-05 ± 5.7e-06	–	–	–	–	–	–
AUAAAAGCGCCAGAACUACAGAAAUGUAGUUGACGAGGAGGAGGUUUAUGGAAUUUUCGGCUGAUGCCGCCAAA [C50G G62U U69G]	8.66e-05 ± 2.1e-05	–	7.83e-05 ± 2.3e-05	0.000155 ± 4.7e-05	7.41e-05 ± 1.6e-05	3.4e-05 ± 1.2e-05	0.000155 ± 4.5e-05
AUAAAAGCGCCAGCACUACAGAAAUGUAGUUGACGAGGAGGAGGUUUAUCGAAUUUUCGGCGGAUGACUCCAAA [A14C C67A]	0.00149 ± 0.00032	1850 ± 600	0.000337 ± 4.4e-05	0.00079 ± 0.00013	0.00146 ± 0.00024	3.89e-05 ± 9.3e-06	0.000145 ± 2.4e-05
AUAAAAGCGCCAGAACUACAGAAAUGUAGUUGACGAGGAGGAGGUUUAUCGAAUUUUCGGCGGACGACUCCAAA [U65C C67A]	0.000111 ± 9.5e-06	672 ± 220	6e-05 ± 1.4e-05	7.82e-05 ± 2.1e-05	0.000106 ± 1.6e-05	–	–
AUAAAAGCGCCAGAAUUACAGAAAUGUAGUUGACGAGGAGGAGGUUUAUGGAUUAUUCGGCGGAUGCCUCCAAA [C16U C50G A53U U55A]	3.66e-05 ± 1e-05	–	4.65e-05 ± 2.2e-05	–	–	–	–
AUAAACGCGCCAGAACUACAGAAAUGUAGUUGACGAGGAGGAGGUUUAUCGAAUUUUCGGCGGAUGCCUCCAAA [A6C]	0.000141 ± 4.6e-06	2100 ± 180	3.13e-05 ± 1.1e-06	7.95e-05 ± 1.5e-06	0.000115 ± 1.8e-06	–	< 1e-05
AUAAAGGCGCCUGAACUACAGAAAUGUAGUUGACGAGGAGGAGGUUUAUCGAAUUUUCGGCGGAUGCCUCCAAA [A6G A12U]	0.000134 ± 1.7e-05	–	7.58e-05 ± 1.1e-05	0.000155 ± 2.1e-05	0.000119 ± 1e-05	–	–
AUAAAAACGCCAGAACUACAGAAAUGUAGUUGACGAGGAGGAGGUUUAUCGAAUUUUCGGCGGAUGCUUCCAAA [G7A C68U]	2.24e-05 ± 5.5e-06	–	–	–	–	–	–
AUAAAAGCGCCAGAACUACAGAAAUGUAGCUGACGAGGAGGAGGUUUAUCGAAUUCUCGGCGGAUGCCUCCAAA [U30C U56C]	0.000116 ± 7.6e-06	4270 ± 610	–	4.38e-05 ± 4.8e-06	8.1e-05 ± 7e-06	–	–
AUAAAAGCGCCAGAACUACAGAAAUGUAGUUGACGAGGAGGAGGUUUAUCGAAUUCUGGGCGGAUGCCUCCAAA [U56C C58G]	2.76e-05 ± 8.3e-06	–	–	–	–	–	–
AUAAAAGCGCCAAUACUACAGAAAUGUAGUUGACGAGGAGGAGGUUUAUCGAAUUUUCGGCGGAUGCCUCCAAA [G13A A14U]	0.000964 ± 0.00014	3120 ± 800	0.000184 ± 2.9e-05	0.000365 ± 5e-05	0.000781 ± 8e-05	–	5.13e-05 ± 1.1e-05
AUAAAAGCGCCAGAACUACAGAAAUGUAGUUGACGAGGAGUAGGUUUAUCGAAUUGUCGGCGGAUGCCUCCAAA [G41U U56G]	0.000847 ± 0.00013	2280 ± 590	0.000185 ± 3.5e-05	0.000491 ± 5.8e-05	0.00064 ± 9.6e-05	2.66e-05 ± 1.2e-05	4.73e-05 ± 1.1e-05
AUAAAAGCGCCAGAAGUACAGAAAUGUAGUUGACGAGGAGGAGGUUUAUCGAAUUUUCGGCGGAUACCUCCAAA [C16G G66A]	0.00183 ± 0.0004	1140 ± 380	0.000593 ± 8.9e-05	0.00111 ± 0.00019	0.00218 ± 0.00038	7.41e-05 ± 1.1e-05	0.000199 ± 5.6e-05
AUAAAAGCGCCAGAACUACAGAAAUGUAGUUGACGAGGAGGAGGUUUAUUGAAUUUCCGGCGAAUGCCUCCAAA [C50U U57C G63A]	2.57e-05 ± 3.6e-06	–	–	–	–	–	–
AUAAAAGCGCCAGAACUACAGAAAUGUAGUUGACGAGGACGAGGCUUAUCGAAUUUUCGGCGGAUGCCUCCAAA [G40C U45C]	0.000403 ± 4.9e-05	2310 ± 570	0.0001 ± 2.5e-05	0.000195 ± 3.4e-05	0.000344 ± 6.4e-05	–	–
AUAAAAGCGCCAGAACUACAGAAAUGUAGUUGACGAGGAGGAGGUUUAUUGAAUUUUCGUCGGAUGCCUUCAAA [C50U G60U C70U]	1.49e-05 ± 6e-06	–	–	–	–	–	–
AUAAAAGCGCCAGAACUACAGAAAUGUAGUUGACGAGGAGGAGGUUUAUCGGAUUUUCGGCGGAUGCCACCAAA [A52G U69A]	5.52e-05 ± 3e-06	–	–	5.1e-05 ± 1.7e-05	5.51e-05 ± 8.5e-06	–	–
AUAAAAGCGCCAGAACUACAGAAAUGUAGUUGACGAGGAGGAGGUUUAUGGAAUUUUCGUUGGAUGCCACCAAA [C50G G60U C61U U69A]	7.69e-05 ± 1.1e-05	–	7.91e-05 ± 2.6e-05	7.43e-05 ± 1e-05	–	–	0.000102 ± 3.2e-05
AUAAAUGCGCCAGAACUACAGAAAUGUAGUUGACGAGGAGGAGGUUUAUCGAAUUUUCGGCGGAUGGCUCCAAA [A6U C67G]	1.15e-05 ± 1.2e-06	–	–	–	–	–	–
